According to paper PMC3458019:

Test: mouse liver sections 10 min after injection, anti-FX/CD68 staining
Conditions: glycan lost; control: pd-FX

With Factor X (FX): PNGase F (N-degly-FX) as the substance, how does the localisation_or_trafficking read?
The localisation_or_trafficking was “changes, the localization of FX was predominantly to hepatocytes”.
